Data on 1 molecule can be found in patent US20100184697A1 (U S OF AMERICA AS REPRESENTED BY THE SECRETAR, published 2010).

The target in assay [1] is T1, STAT3 tagged with eGFP on its N-terminus (UniProt P40763 1-770).
T1 construct: Stably expressed inside living HEK293 cells; also called eGFP-STAT3; not shown: eGFP (enhanced green fluorescent protein) tag
As to the kind of experiment: FRET efficiency (1-D0/D1) by rhodamine photobleaching in living cells. The text has this: (§1) An additional cysteine residue was positioned at the C-terminus of penetratin to facilitate labeling. Excitation of eGFP (donor) was facilitated using a 488-nm light source, and the emission spectrum was detected. In the absence of energy transfer between eGFP and rhodamine, excitation of eGFP would lead to an emission peak at 520-540 nm, whereas energy transfer from eGFP to an adjacent rhodamine fluorochrome acceptor would cause an emission in the 560-600 nm range. […] To confirm that FRET was occurring, acceptor photobleaching was performed with a 561 nm laser using an LSM 510 confocal microscope (Zeiss).
(§2) Excitation of eGFP was facilitated, and the emission spectrum detected, in accordance with the methods described in Example 6. FRET efficiency was calculated using equation 1-D0/D1, where D0 is fluorescence intensity of eGFP before rhodamine photobleaching and D1 is the intensity after rhodamine photobleaching.

Assay [2] has as its target T2, eGFP-STAT1 (UniProt P42224 1-750).
T2 construct: Expressed inside living cells; not shown: eGFP (enhanced green fluorescent protein) tag
T2 sequence (looked up): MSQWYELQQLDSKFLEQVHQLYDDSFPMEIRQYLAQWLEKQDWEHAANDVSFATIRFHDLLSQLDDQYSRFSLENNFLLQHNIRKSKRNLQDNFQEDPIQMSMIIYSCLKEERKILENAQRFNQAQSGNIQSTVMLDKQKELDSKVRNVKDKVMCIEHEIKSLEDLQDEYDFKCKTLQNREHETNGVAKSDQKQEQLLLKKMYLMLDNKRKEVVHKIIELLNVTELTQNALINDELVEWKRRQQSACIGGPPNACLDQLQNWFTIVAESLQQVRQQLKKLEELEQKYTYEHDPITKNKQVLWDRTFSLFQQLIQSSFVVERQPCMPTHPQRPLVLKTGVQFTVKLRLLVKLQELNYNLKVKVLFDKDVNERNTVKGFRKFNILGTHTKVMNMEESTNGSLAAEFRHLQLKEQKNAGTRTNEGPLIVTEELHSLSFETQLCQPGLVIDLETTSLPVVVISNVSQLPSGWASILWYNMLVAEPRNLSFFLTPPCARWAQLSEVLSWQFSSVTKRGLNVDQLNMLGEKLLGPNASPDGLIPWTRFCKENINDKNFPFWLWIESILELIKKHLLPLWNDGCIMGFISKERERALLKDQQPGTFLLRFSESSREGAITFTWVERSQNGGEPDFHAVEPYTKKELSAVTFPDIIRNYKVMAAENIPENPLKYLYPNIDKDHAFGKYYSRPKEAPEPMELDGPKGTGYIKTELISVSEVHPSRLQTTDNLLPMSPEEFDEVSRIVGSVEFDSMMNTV
Described as above.
Excerpt: as §1, §2

For assay [3], the target named is T3, eGFP.
T3 construct: Control, expressed inside living cells
Described as above.
Excerpt: as §1, §2

Assay [4] deals with T2, eGFP-STAT1. As to the kind of experiment: FRET (eGFP donor, rhodamine acceptor, acceptor photobleaching) in living cells.

Square brackets hold non-standard residues; d marks the D form. Ends that are not written are not given here. rhodamine = not defined here; Nle = CCCC[C@H](N)C(=O)O

T1 sequence (P40763 whole entry): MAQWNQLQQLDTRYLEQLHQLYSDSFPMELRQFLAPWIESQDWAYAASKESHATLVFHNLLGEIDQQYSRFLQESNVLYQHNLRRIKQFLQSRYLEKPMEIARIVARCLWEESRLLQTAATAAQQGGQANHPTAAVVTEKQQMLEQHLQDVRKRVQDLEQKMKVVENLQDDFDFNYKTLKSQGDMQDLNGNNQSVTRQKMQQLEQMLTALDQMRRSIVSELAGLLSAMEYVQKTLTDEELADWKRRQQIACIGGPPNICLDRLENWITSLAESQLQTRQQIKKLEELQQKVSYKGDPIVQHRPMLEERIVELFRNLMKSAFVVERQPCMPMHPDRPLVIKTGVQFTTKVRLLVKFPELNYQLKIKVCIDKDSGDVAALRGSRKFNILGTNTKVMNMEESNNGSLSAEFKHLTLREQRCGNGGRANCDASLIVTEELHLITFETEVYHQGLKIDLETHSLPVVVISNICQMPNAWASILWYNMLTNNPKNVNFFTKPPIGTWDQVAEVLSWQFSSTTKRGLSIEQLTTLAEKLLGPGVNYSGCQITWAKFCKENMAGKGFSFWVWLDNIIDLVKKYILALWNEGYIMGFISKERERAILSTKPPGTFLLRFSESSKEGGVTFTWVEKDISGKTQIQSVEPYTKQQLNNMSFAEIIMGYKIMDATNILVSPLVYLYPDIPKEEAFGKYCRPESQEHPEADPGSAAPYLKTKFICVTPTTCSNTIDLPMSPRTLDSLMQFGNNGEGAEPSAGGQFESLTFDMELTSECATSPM

B1: rhodamine-labeled STAT3-HEL2A-2 (peptide)
peptide: LDTRYLEQLHKLYRQIKIWFPNRR[Nle]KWKKC(rhodamine)
modifications: not fully specified; reading uncertain
notes: Synthetic peptide; also called STAT3-HEL2A-2 labeled with rhodamine
As to B1, the FRET efficiency is 90.8% in assay [1], roughly 12.8% in assay [2] and roughly 15.2% in assay [3]. Moreover, in assay [4], the binding result was “no binding”.
